Results taken from patent US20030219410A1 (TRANSGENE S A, published 2003).

Target: T1, recombinant PML (wild-type 69 kDa isoform PML, PML3B) (UniProt P29590 1-560)
T1 construct: Untagged protein used in the co-transfection and co-localisation experiments; also called Promyelocytic Leukemia Protein
T1 sequence: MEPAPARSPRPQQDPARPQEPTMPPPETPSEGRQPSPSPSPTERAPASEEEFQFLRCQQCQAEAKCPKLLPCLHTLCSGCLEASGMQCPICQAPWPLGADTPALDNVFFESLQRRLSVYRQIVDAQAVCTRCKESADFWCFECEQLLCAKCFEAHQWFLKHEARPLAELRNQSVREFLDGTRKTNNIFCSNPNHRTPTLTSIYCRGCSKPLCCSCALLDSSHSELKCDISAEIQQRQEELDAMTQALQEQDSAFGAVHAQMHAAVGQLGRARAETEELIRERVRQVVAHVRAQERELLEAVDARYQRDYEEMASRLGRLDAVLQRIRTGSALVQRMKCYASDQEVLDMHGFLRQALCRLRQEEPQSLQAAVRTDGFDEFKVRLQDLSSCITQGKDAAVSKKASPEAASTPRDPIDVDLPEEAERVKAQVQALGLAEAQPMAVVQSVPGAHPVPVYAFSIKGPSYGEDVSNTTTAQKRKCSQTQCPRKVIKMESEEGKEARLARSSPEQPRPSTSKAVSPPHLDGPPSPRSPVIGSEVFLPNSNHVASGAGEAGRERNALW
Assay: co-localisation by immunostaining and EM in transiently co-transfected cells

B1: recombinant wt pIX protein (other)
chain: MSTNSFDGSIVSSYLTTRMPPWAGVRQNVMGSSIDGRPVLPANSTTLTYETVSGTPLETAASAAASAAAATARGIVTDFAFLSPLASSAASRSSARDDKLTALLAQLDSLTRELNVVSQQLLDLRQQVSALKASSPPNAV
notes: Untagged protein used in the co-transfection and co-localisation experiments
B1: binds.
